Key:
[1] = target: T1, human plasma-derived FX (Haematologic Technologies Inc, USA) (human, UniProt P00742 41-179; P00742 183-488); assay: SPR, FX captured on immobilised anti-GLA-FX antibody, steady state analysis, 25 C
T1 construct: also called coagulation Factor X; human FX
Description: Briefly, an anti-GLA-FX, prepared recombinantly as described above, was immobilised on a CM4 sensor chip or a Xantec HLC200M using standard amine coupling chemistry at pH 5. 10 nM FX (Haematologic Technologies, USA) was injected at a flow rate of 10 μL/min for 30 seconds. Subsequently 1000, 100, 10, 1, 0.1 and 0 nM of VHH polypeptide compound, according to Table 9, below were injected at a flow rate of 50 μL/min for 200 seconds to allow for binding to FX followed by a flow of 10 minutes with a running buffer (10 mM HEPES, 150 mM NaCl, 5 mM CaCl₂), 0.05% (v/v) Surfactant P20, 1 mg/mL bovine serum albumin, pH 7.4) injection allowing for dissociation from FX. The running buffer was also used for dilution of anti-FX VHH polypeptide compounds. Regeneration of the chip was achieved using a regeneration buffer consisting of 50 mM EDTA in running buffer, 30 seconds contact time, and a 30 μL/min flow rate. The binding data were collected at 25° C. and were analysed according to a 1:1 model using BiaEvaluation 4.1 supplied by the manufacturer (Biacore AB, Uppsala or Bruker Analyser).
(§1) Therefore, the reported KD values are determined based on steady state analysis.

[2] = target: T2, Benefix (Pfizer Inc, USA), FIX (human, UniProt P00740 47-461); assay: SPR, FIX (Benefix) captured on immobilised anti-GLA-FIX antibody, steady state analysis, 25 C
T2 construct: Bought product; also called FIX (Benefix®)
T2 sequence (P00740 47-461 T194A limits assumed): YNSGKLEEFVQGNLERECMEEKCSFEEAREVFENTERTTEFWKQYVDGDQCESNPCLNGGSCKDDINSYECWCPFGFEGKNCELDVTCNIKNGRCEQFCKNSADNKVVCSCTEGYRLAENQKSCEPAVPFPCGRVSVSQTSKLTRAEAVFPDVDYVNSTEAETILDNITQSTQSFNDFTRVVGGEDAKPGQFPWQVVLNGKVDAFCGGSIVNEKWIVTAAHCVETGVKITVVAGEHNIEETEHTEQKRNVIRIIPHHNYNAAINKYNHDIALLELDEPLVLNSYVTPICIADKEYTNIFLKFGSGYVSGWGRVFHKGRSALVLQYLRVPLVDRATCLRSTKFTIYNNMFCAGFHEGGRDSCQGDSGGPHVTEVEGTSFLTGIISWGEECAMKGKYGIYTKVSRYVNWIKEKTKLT
Description: Briefly, anti-GLA-FIX, prepared recombinantly as described above, was immobilised on a CM4 sensor chip or a Xantec HLC200M using standard amine coupling chemistry at pH 5. FIX (10 nM) was injected at a flow rate of 10 μL/min for 1 minute. Subsequently 1000, 100, 10, 1, 0.1 and 0 nM of VHH polypeptide compound were injected at a flow rate of 30 μL/min for 4 minutes to allow for binding to the FIX (Benefix®) followed by a flow of 5 minutes running buffer (10 mM HEPES, 150 mM NaCl, 5 mM CaCl₂), 0.05% (v/v) Surfactant P20, 1 mg/mL bovine serum albumin, pH 7.4) injection allowing for dissociation from FIX. The running buffer was also used for dilution of anti-FIX VHH polypeptide compounds. Regeneration of the chip was achieved using a regeneration buffer consisting of 50 mM EDTA in running buffer, 30 seconds contact time, and a 30 μL/min flow rate. The binding data were collected at 25° C. and were analysed according to a 1:1 model using BiaEvaluation 4.1 supplied by the manufacturer (Biacore AB, Uppsala).
as §1

[3] = target: T1, human plasma-derived FX (Haematologic …); assay: cell-based or functional assay

T1 sequence (P00742 41-179, chain 1 of 2): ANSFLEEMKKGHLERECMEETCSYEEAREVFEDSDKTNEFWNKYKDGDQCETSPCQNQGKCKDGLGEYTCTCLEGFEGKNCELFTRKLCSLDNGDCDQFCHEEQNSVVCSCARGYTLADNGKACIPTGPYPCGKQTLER
T1 sequence (P00742 183-488, chain 2 of 2): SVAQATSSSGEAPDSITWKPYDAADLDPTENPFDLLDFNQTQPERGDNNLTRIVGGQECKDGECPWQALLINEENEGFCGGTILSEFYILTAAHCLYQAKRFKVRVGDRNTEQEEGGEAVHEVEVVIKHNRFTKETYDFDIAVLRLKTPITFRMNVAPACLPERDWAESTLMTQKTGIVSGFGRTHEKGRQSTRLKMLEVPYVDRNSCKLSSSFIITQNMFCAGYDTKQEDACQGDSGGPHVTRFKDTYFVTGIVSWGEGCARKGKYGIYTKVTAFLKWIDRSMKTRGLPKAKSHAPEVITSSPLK

B1: Cmpd #4 (anti-FX/anti-FIX(a) VHH polypeptide derivative) (bispecific antibody)
chain: DVQLVESGGGVVQPGGSLRLSCAASGRTHSRYAMGWFRQAPGKEREFVAAISRRGGSTNYADSVKGRFTISRDNSKNTVYLQMNSLRPEDTALYYCAADDSSGDGYLDYWGQGTLVTVSSGGGGSGGGSEVQLVESGGGVVQPGGSLRLSCAASGRTFNIYTMSWFRQAPGKEREFVAGLRWTDSSTEYADSVKGRFTISRDNSKNTVYLQMNSLRPEDTALYYCAADRSFLFAQALGATKNYEYWGQGTLVTVSSGGGGSCHHHHHH
modifications: C18 diacid protractor (P3) via linker LP1 on Cys6 in C-term extension (SEQ ID NO: 7)
notes: Single chain of two VHH: anti-FX (N-terminal) and anti-FIX(a) (C-terminal)
B1 gave a Kd [1] of 229 nM and a Kd [2] of 11.7 nM.

B2: Cmpd #5 (anti-FX/anti-FIX(a) VHH polypeptide derivative) (bispecific antibody)
chain: DVQLVESGGGVVQPGGSLQLSCAASGRTHSRYAMGWFRQAPGQEREFVAAISRRGGSTNYADSVKGRFTISRDNSKNTVYLQMDSLRPEDTALYYCAADDSSGDGYLDYWGQGTLVTVSSGGGGSGGGSEVQLVESGGGVVQPGGSLQLSCAASGRTFNIYTMSWFRQAPGQEREFVAGLRWTDSSTEYADSVKGRFTISRDNSKNTVYLQMDSLRPEDTALYYCAADRSFLFAQALGATKNYEYWGQGTLVTVSSGGGGSCHHHHHH
modifications: C18 diacid protractor (P3) via linker LP1 on Cys6 in C-term extension (SEQ ID NO: 7)
notes: as for B1
B2 gave a Kd [1] of 199 nM and a Kd [2] of 2.7 nM.

B3: Cmpd #21 (anti-FX/anti-FIX(a) VHH polypeptide derivative) (bispecific antibody)
chain: DVQLVESGGGVVQPGGSLQLSCAASGGTKSRYAMGWFRQAPGQEREFVAAISRRGGSTNYADSVKGRFTISRDNSKNTVYLDMDDLRPEDTALYYCAADDSVGDGYLDYWGQGTLVTVSSGQAPGQEVQLVESGGGVVQPGGSLQLSCAASGRTFNIYTMSWFRQDPGQEREFVAGLRWTDSSTEYADSVKGRFTISRDNSKNTVYLQMDSLRPEDTALYYCAADRSFLFAQALGATKNYEYWGQGTLVTVSSGQACPC
modifications: C16 diacid protractor (P2) via linker LP1 on Cys4 and Cys6 in C-term extension (SEQ ID NO: 9)
With B3 the “KM (nM) of FX activation by 0.1 nM FIXa on phospholipid vesicles with 5 nM compound” value (shortened to “KM (nM) of FX activation by 0.1 nM FIXa”) [3] was 3.9 nM and the “kcat/KM (1/(min * nM)) of FX activation by 0.1 nM FIXa with 5 nM compound” value (“kcat/KM (1/(min * nM)) of FX activation” below) [3] was 4.5e+06 M⁻¹ s⁻¹.

B4: Cmpd #16 (anti-FX/anti-FIX(a) VHH polypeptide derivative) (bispecific antibody)
chain: DVQLVESGGGVVQPGGSLQLSCAASGGTKRRLAMGWFRQAPGQEREWVAAISRRGGSTNYADSVKGRFTISRDNSKNTVYLDMDDLRPEDTALYYCAADDSVGDGYLDYWGQGTLVTVSSGQAPGQEVQLVESGGGVVQPGGSLRLSCAASGRYFNIYTMSWFRQDPGQEREFVAGLRWTDSSTEYADSVKGRFTISRDNSKNTVYLQMNSLRPEDTALYYCAADRSFLFAQALGATKNYEYWGQGTLVTVSSGQACPC
modifications: C16 diacid protractor (P2) via linker LP1 on Cys4 and Cys6 in C-term extension (SEQ ID NO: 9)
With B4 the “KM (nM) of FX activation by 0.1 nM FIXa” value [3] was 7.1 nM and the “kcat/KM (1/(min * nM)) of FX activation” value [3] was 2.33e+06 M⁻¹ s⁻¹.

B5: Cmpd #14 (anti-FX/anti-FIX(a) VHH polypeptide derivative) (bispecific antibody)
chain: DVQLVESGGGVVQPGGSLQLSCAASGGTKRRLAMGWFRQAPGQEREFVAAISRRGGSTNYADSVKGRFTISRDNSKNTVYLQMDSLRPEDTALYYCAADDSVGDGYLDYWGQGTLVTVSSGQAPGQEVQLVESGGGVVQPGGSLQLSCAASGRTFNIYTMSWFRQAPGQEREFVAGLRWTDSSTEYADSVKGRFTISRDNSKNTVYLQMDSLRPEDTALYYCAADRSFLFAQALGATKNYEYWGQGTLVTVSSGQACPC
modifications: C16 diacid protractor (P2) via linker LP1 on Cys4 and Cys6 in C-term extension (SEQ ID NO: 9)
notes: Single chain of two VHH: anti-FX (N-terminal) and anti-FIX(a) (C-terminal); also called VHH1.14-L1-2-VHH2.14-E
Binder B5 has a Kd [1] of 42 nM and a Kd [2] of 1.6 nM.

B6: Cmpd #17 (anti-FX/anti-FIX(a) VHH polypeptide derivative) (bispecific antibody)
chain: DVQLVESGGGVVQPGGSLQLSCAASGGTKSRYAMGWFRQAPGQEREWVAAISRRGGSTNYADSVKGRFTISRDNSKNTVYLDMDDLRPEDTALYYCAADDSVGDGYLDYWGQGTLVTVSSGQAPGQEVQLVESGGGVVQPGGSLQLSCAASGRTFNIYTMSWFRQDPGQEREFVAGLRWTDSSTEYADSVKGRFTISRDNSKNTVYLQMDSLRPEDTALYYCAADRSFLFAQALGATKNYEYWGQGTLVTVSSGQACPC
modifications: C16 diacid protractor (P2) via linker LP1 on Cys4 and Cys6 in C-term extension (SEQ ID NO: 9)
With B6 the “KM (nM) of FX activation by 0.1 nM FIXa” value [3] was 9 nM and the “kcat/KM (1/(min * nM)) of FX activation” value [3] was 2.5e+06 M⁻¹ s⁻¹.

B7: Cmpd #19 (anti-FX/anti-FIX(a) VHH polypeptide derivative) (bispecific antibody)
chain: DVQLVESGGGVVQPGGSLQLSCAASGGTKSRYAMGWFRQAPGQEREWVAAISRRGGSTNYADSVKGRFTISRDNSKNTVYLQMDSLRPEDTALYYCAADDSVGDGYLDYWGQGTLVTVSSGQAPGQEVQLVESGGGVVQPGGSLQLSCAASGRTFNIYTMSWFRQAPGQEREFVAGLRWTDSSTEYADSVKGRFTISRDNSKNTVYLQMDSLRPEDTALYYCAADRSFLFAQALGATKNYEYWGQGTLVTVSSGQACPC
modifications: C16 diacid protractor (P2) via linker LP1 on Cys4 and Cys6 in C-term extension (SEQ ID NO :9)
For B7, the “KM (nM) of FX activation by 0.1 nM FIXa” value [3] was 8.2 nM and the “kcat/KM (1/(min * nM)) of FX activation” value [3] was 5e+06 M⁻¹ s⁻¹.

— patent US20240067944A1 (published 2024)
